Test results: the supplement of paper PMC9170038

Tested on: MS2 coat protein
Test: apparent KD of MS2 coat protein; higher = weaker reporter binding
Conditions: Eterna round: R107
Outline: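 Designed RNA switches were transcribed on-chip from Illumina sequencing clusters. They were then titrated with SNAP-549-labelled MS2 coat protein (twofold steps, 0.7 or 1.5 nM to 3 µM; 0.8–1.5 h to 10–20 min per step) in 100 mM Tris-HCl pH 7.5, 80 mM KCl, 4 mM MgCl2, without or with constant ligand. Apparent KD is the per-design median of normalised cluster binding-curve fits.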

[1] = input ligand: theophylline 20 uM
[2] = input ligand: tryptophan 2.4 mM
[3] = input ligand: theophylline 2 mM

## ACGAUACGACAUGAGGAUCACCCAUGUGAUACCAGCGUGGAAACACGCCCUUGGCAGCACAAAUACUCCAGAAACGUAUCGAAAA [MAT - Exclusion Theophlline A - Mod of Eli - D7]
Input ligand: arginine 13.2 mM
  apparent KD of MS2 coat protein: 93.3 nM
[1]
  apparent KD of MS2 coat protein: 258 nM
[2]
  apparent KD of MS2 coat protein: 285 nM

## AGAGGUAUACAUGGAAACAUGUAUAUUUCACGAGGACCGGUACGGCCGCCACUCGGUACCGGAAACACAUGAGGAUCACCCAUGU [Ex_TrypA - H1]
Input ligand: arginine 13.2 mM
  apparent KD of MS2 coat protein: 17 nM
[1]
  apparent KD of MS2 coat protein: 23.2 nM
[3]
  apparent KD of MS2 coat protein: 24.3 nM

## GCUUGGGUGGCCCAGCCCUGGCAGGGCGAUACCAGCACGGUAACGUGCCCUUGGCAGCGCACAUGAGGAUCACCCAUGUGGUGCG [#1 Exclusion - Theophylline A Attempt #27 (HarryS)]
Input ligand: arginine 13.2 mM
  apparent KD of MS2 coat protein: 52.8 nM
[1]
  apparent KD of MS2 coat protein: 161 nM
[2]
  apparent KD of MS2 coat protein: 112 nM

## ACGGAUCGGAAACGAUCCGCGGCUAGGGUGCGAGGACCGGUACGGCCGCCACUCGGGUAACAUGAGGAUCACCCAUGUCCGAUUU [ETA NP+V+V2 #13 Same Structure]
Input ligand: arginine 13.2 mM
  apparent KD of MS2 coat protein: 36.4 nM
Input ligand: none
  apparent KD of MS2 coat protein: 92.7 nM
[1]
  apparent KD of MS2 coat protein: 79 nM
[3]
  apparent KD of MS2 coat protein: 143 nM
[2]
  apparent KD of MS2 coat protein: 198 nM

## GCUAGGUCAUCGGCCGCCACUAACGAUGGCUCCAACAUGAGGAUCACCCAUGUGCCACAUGCGCAUAGGACCGGGAUGACCUAGC [SSTB NP+V+V2 #3]
Input ligand: arginine 13.2 mM
  apparent KD of MS2 coat protein: 11.3 nM
[1]
  apparent KD of MS2 coat protein: 16.2 nM
[3]
  apparent KD of MS2 coat protein: 14.1 nM

## GAGGGUGAAUCUCUGGUCCGUUUGACGGAUACCAGCGAGAGGUAUCGCCCUUGGCAGCCGACGACAUGAGGAUCACCCAUGUUAA [#08 Exclusion-TheophyllineA]
Input ligand: arginine 13.2 mM
  apparent KD of MS2 coat protein: 18.9 nM
[1]
  apparent KD of MS2 coat protein: 30.4 nM
[2]
  apparent KD of MS2 coat protein: 18 nM

## UGACAUGAGGAUCACCCAUGUAUAACUGAAGGAGCGUCCAUAAGGACAGGUAGGUCGCGGAAUGAACAGAGUGCACGACAUGUUU [Arg A SS t1]
Input ligand: arginine 13.2 mM
  apparent KD of MS2 coat protein: 12.8 nM
Input ligand: none
  apparent KD of MS2 coat protein: 13.3 nM
[1]
  apparent KD of MS2 coat protein: 17.7 nM
[3]
  apparent KD of MS2 coat protein: 14.3 nM
[2]
  apparent KD of MS2 coat protein: 14.2 nM

## GGACUAACCAGAAGGAGCGACACGCAGAAACUGCAAAUUCCUCCGCACGAGGAUCACCCGUGUCAGGUAGGUCGCUGGUUAGUCG [ArgBX 28]
Input ligand: arginine 13.2 mM
  apparent KD of MS2 coat protein: 22.9 nM
Input ligand: none
  apparent KD of MS2 coat protein: 19.4 nM
[1]
  apparent KD of MS2 coat protein: 33.2 nM
[3]
  apparent KD of MS2 coat protein: 23.5 nM
[2]
  apparent KD of MS2 coat protein: 22.4 nM

## UUAUAAGUACCGGUCCUCAGAUCCUCAUGACGAGGACCGGUACGGCCGCCACUCGAAACAUGAGGAUCACCCAUGUAAUAAUAAC [Brourdmod04]
Input ligand: arginine 13.2 mM
  apparent KD of MS2 coat protein: 23.3 nM
[1]
  apparent KD of MS2 coat protein: 92.1 nM
[3]
  apparent KD of MS2 coat protein: 37.7 nM

## UUACACAUGAGGAUCACCCAUGUCUGGGAGCGAGGACCGGUACGGCCGCCACUCGAAUUGUCAGGGCUAUGCCGGACGAUGCAUC [theeternabot_sameState_MS2_Trp_A_20]
Input ligand: arginine 13.2 mM
  apparent KD of MS2 coat protein: 20.6 nM
[1]
  apparent KD of MS2 coat protein: 23.5 nM
[3]
  apparent KD of MS2 coat protein: 25 nM

## GAUGAAGUAACUGAUACCAGUGUACUGACAUGAGGAUCACCCAUGUUGGGUUUUGUUGUACACCCUUGGCAGCAGAAUCUUUAUC [AstrosExyTheB#5]
Input ligand: arginine 13.2 mM
  apparent KD of MS2 coat protein: 33.8 nM
[1]
  apparent KD of MS2 coat protein: 60.8 nM
[2]
  apparent KD of MS2 coat protein: 45.8 nM

## AGGACAUGAGGAUCACCCAUGUACUCUGAAGGAGCGUCGAGAACGACAGGUAGGUCGCAGGCUAAGGAAGGUGAUGCUCAAGAAG [Exclusion Arginine A GF7]
Input ligand: arginine 13.2 mM
  apparent KD of MS2 coat protein: 20.1 nM
Input ligand: none
  apparent KD of MS2 coat protein: 20.2 nM
[1]
  apparent KD of MS2 coat protein: 37.3 nM
[3]
  apparent KD of MS2 coat protein: 24.8 nM
[2]
  apparent KD of MS2 coat protein: 15.2 nM

## CAUUAUGUAACUGAUACCAGUGUACUGACAUGAGGAUCACCCAUGUUGGGUUUUGUUGUACACCCUUGGCAGCAGAAUCAUAAUG [AstrosExyTheB#2]
Input ligand: arginine 13.2 mM
  apparent KD of MS2 coat protein: 43.3 nM
[1]
  apparent KD of MS2 coat protein: 70.3 nM
[2]
  apparent KD of MS2 coat protein: 57.8 nM

## ACGCUGAUUGAUUACAAUCAGCGAAAAGAUACCAGUGGGUAAUCCCACCCUUGGCAGCUUAAACAAGAGGAUCACCCUUGUGGUA [TheoAS 16 #MS2Right #BothOrNeither #AlternativeMS2]
Input ligand: arginine 13.2 mM
  apparent KD of MS2 coat protein: 102 nM
Input ligand: none
  apparent KD of MS2 coat protein: 201 nM
[1]
  apparent KD of MS2 coat protein: 370 nM
[3]
  apparent KD of MS2 coat protein: 238 nM
[2]
  apparent KD of MS2 coat protein: 521 nM

## ACGAACGAUAGUGAUACCAGACGUACAUGAGGAUCACCCAUGUUUUGGGUAAGGUUAAUAGUCCCUUGGCAGCACUUUAAGUUCG [JR_ExcTheophyB_Sub007]
Input ligand: arginine 13.2 mM
  apparent KD of MS2 coat protein: 44.6 nM
[1]
  apparent KD of MS2 coat protein: 80.8 nM
[2]
  apparent KD of MS2 coat protein: 50.9 nM
